The source of these data is paper PMC8327139, “Nodal modulator (NOMO) is required to sustain endoplasmic reticulum morphology” (The Journal of Biological Chemistry, 2021).

This data set concerns the molecule itself. In words: SEC-MALS; NOMO1-FLAG on a Superose 6 column, RT, 50 mM MES pH 6.0, 150 mM KCl, 5 mM MgCl2, 5 mM CaCl2, 2% glycerol, 0.05% DDM; protein conjugate analysis to correct for detergent.

As a reminder, the stoichiometry N is a count of units in the complex or per binding partner.

B1: NOMO1-FLAG (nodal modulator 1, full length, C-terminal FLAG tag) (natural protein, human, UniProt Q15155 32-1222, looked up)
chain: SEDIVVGCGGFVKSDVEINYSLIEIKLYTKHGTLKYQTDCAPNNGYFMIPLYDKGDFILKIEPPLGWSFEPTTVELHVDGVSDICTKGGDINFVFTGFSVNGKVLSKGQPLGPAGVQVSLRNTGTEAKIQSTVTQPGGKFAFFKVLPGDYEILATHPTWALKEASTTVRVTNSNANAASPLIVAGYNVSGSVRSDGEPMKGVKFLLFSSLVTKEDVLGCNVSPVPGFQPQDESLVYLCYTVSREDGSFSFYSLPSGGYTVIPFYRGERITFDVAPSRLDFTVEHDSLKIEPVFHVMGFSVTGRVLNGPEGDGVPEAVVTLNNQIKVKTKADGSFRLENITTGTYTIHAQKEHLYFETVTIKIAPNTPQLADIIATGFSVCGQISIIRFPDTVKQMNKYKVVLSSQDKDKSLVTVETDAHGSFCFKAKPGTYKVQVMVPEAETRAGLTLKPQTFPLTVTNRPMMDVAFVQFLASVSGKVSCLDTCGDLLVTLQSLSRQGEKRSLQLSGKVNAMTFTFDNVLPGKYKISIMHEDWCWKNKSLEVEVLEDDMSAVEFRQTGYMLRCSLSHAITLEFYQDGNGRENVGIYNLSKGVNRFCLSKPGVYKVTPRSCHRFEQAFYTYDTSSPSILTLTAIRHHVLGTITTDKMMDVTVTIKSSIDSEPALVLGPLKSVQELRREQQLAEIEARRQEREKNGNEEGEERMTKPPVQEMVDELQGPFSYDFSYWARSGEKITVTPSSKELLFYPPSMEAVVSGESCPGKLIEIHGKAGLFLEGQIHPELEGVEIVISEKGASSPLITVFTDDKGAYSVGPLHSDLEYTVTSQKEGYVLTAVEGTIGDFKAYALAGVSFEIKAEDDQPLPGVLLSLSGGLFRSNLLTQDNGILTFSNLSPGQYYFKPMMKEFRFEPSSQMIEVQEGQNLKITITGYRTAYSCYGTVSSLNGEPEQGVAMEAVGQNDCSIYGEDTVTDEEGKFRLRGLLPGCVYHVQLKAEGNDHIERALPHHRVIEVGNNDIDDVNIIVFRQINQFDLSGNVITSSEYLPTLWVKLYKSENLDNPIQTVSLGQSLFFHFPPLLRDGENYVVLLDSTLPRSQYDYILPQVSFTAVGYHKHITLIFNPTRKLPEQDIAQGSYIALPLTLLVLLAGYNHDKLIPLLLQLTSRLQGVRALGQAASDNSGPEDAKRQAKKQKTRRT
notes: Nodal modulator 1 (NOMO1), human, type I transmembrane glycoprotein: luminal domain (1124 residues), TM domain, 40-residue cytosolic tail; cloned from a Dharmacon plasmid into pcDNA3.1+; 135 kDa with the tag; Membrane protein kept in dodecyl maltoside (0.05% DDM); also called full-length NOMO1-FLAG; full-length NOMO; source: Expi293F, transfected, purified in DDM (anti-FLAG M2 beads, FLAG peptide …)
For B1, the “stoichiometry N” value amounted to 2.
